Source: the RNAGym collection of RNA variant scans (doi:10.1073/pnas.2313332121)
Fewer inactive variants are shown than the library holds.

B1: TPR 5TU (parent)
chain: GGAUCUUCUCGAUCUAACAAAAAAGACAAAUCUGCCACAAAGCUUGAGAGCAUCUUCGGAUGCAGAGGCGGCAGCCUUCGGUGGCGCGAUAGCGCCAACGUUCUCAACUAUGACACGCAAAACGCGUGCUCCGUUGAAUGGAGUUUAUCAUG

Variants of: B1
Assay: polymerase ribozyme fitness, log enrichment relative to wild type (log ratio); higher = more active; in vitro selection for triplet polymerase activity
Method in brief: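 Frozen incubation at −7 °C formed the core of a single, triplicate in vitro selection round applied to PCR-built, transcribed mutant libraries of each subunit of a heterodimeric triplet polymerase ribozyme. Extended constructs were gel-excised, captured with streptavidin beads and amplified by RT-PCR, and input and output libraries were Illumina-sequenced with a filter of ≥10 input reads and ≥1 read per output. Fitness is the logarithm of genotype enrichment relative to wild-type enrichment, with inverse-variance-weighted replicate averaging, and the logarithm is base 2.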

Variant | polymerase ribozyme fitness (log ratio)
GGAUCUUCUCGAUCUACCAAAAAAGACAAAUCUGCCACAAAGCUUGAGAUCAUUUUCGGAUGCAGAGGCGGCAGCCUUCGGUGGCGCGAUAGCGCGAACGUUCUCAACUAUGACACGCAAAACGCGUGCUCCGUUGAAUGGAGUUUAUCAUG | -1.28
GGAUCUUCUCGAUCUAGCCAAAAAGACAAAUCUGCCACAAAGCUUGAGAGCAUCGUCGGAUGCAGAGGCGGCAGCCUUCGGUGGCGUGAUAGUGCCAACGUUCUCAAUUAUGACACGCAAAACGCGUGCUCCGUUGAAUGUAGUUUAUCAUG | ≤ -4.2
GGAUCUUCUCGAUCUAGCAAAAAAGACAAAUCUGCCACAAGGCUUGAGAGCAUUUUCGGAUGCAGAGGCGGCAGCCUUCGGUGGCGCGAUAGCGCCAACGUUCUCAACUAUGACACGCAAAACGCGUGCUCCGUUGAAUGGAGUUUAUCAUG | 0.908
GGAUCUUCUCGAUCUAGCAAAAAAGACAAAUCUGCCACAGAGCUUGAGACCAUCUUCGGAUGCAGAGGCGGCAGCCUUCGGUGGAGCGAUAGCGCCAACGUUCUCAACUAUGACACGCAAAACGCGUGCUCCGUUGAAUGGAGUUUAUCAUG | ≤ -4.2
GGAUCUUCUCGAUCUAGCAAAGAUGACAAAUCUGCCACAAAGCUUACGAGCAUCUUCGGAUGCAGAGGCGGCAGCCUUCGGUGGCGCGAUAGCGCCAACGUUCUCAACUAUGACACGCAAAAAGCGUGAUCCGUUGAAUGGAGUUUAUCAUG | ≤ -4.2
GGAUCUUCUCGAUCUAGCAAAAAAGACAAAUCUGCCACUAAGCUUGAGAGCAUCUUCGGAUGCAGAGGCGGCAGCCUUCGGUGGCGCGAUAGCUCCAACGUUCUCAACUAUGACACGCAAAACGCGUGCUCCGUUGAAUGAAGUUUAUCAUG | -4.08
GGAUCUUCUCGAUCUACCAAAAAAGACAAAUCUGCCACAAAGCUUGAGAGCAUCUUCGGAUGCAGAGGCGGCAGCCUUCGGUGGCGCGAUAGCGCUAACGUUCUCACCUAUGACACGCAAAACGCGUGCUCCGUUGAAUGGAGUUUAUCAUG | -3.77
GGAUCUUCUCGAUCUACCAAAAAAGACAAAUCCGCCACAAAUCAUGAGAGCAUCUGCGGAUGCAGAGGCGGCAGCCUUCGGUGGCGCGAUAGCGCCAACGUUCUCAACUAUGACACGCAAAACGCGUGCUCCGUUGAAUGGAGUUUAUCAUG | ≤ -4.2
GGAUCUUCUCGAUCUACCAAAAAAGACAAAUCUGCCACAAAGCUUGAGAGCAUCUUCGGAUGCAGAGGCGGCAGCCUUCGGUGGCUCGAUAGCGCCAACGUUCUCAACUAUGACACGCAAAACGCGUGCUCCGUUGAAUGGAGUUUAUCAUG | -0.8
GGAUCUUCUCGAUCUACCAAAAAAGACAAAUCUGCCACAAAGCUUGAGAGCAGCUUCGGAUUCAGAGGCGGCAGCCUUCGGUGGCGCGAUAGCGCCAACGUUCUCAACUAUGACACUCAAAACGCGUGCUCCGUUGAAUGGAGUUUAUCAUG | -2.27
GGAUCUUCUCGAUCUAGCAACAAAGACAAAUCUGCCACAAAGCUUCAGAGCAUCUUCUGAUGCAGAGGCGGCAGCCUUCGGUGGCGCGAUAGCGCCAACGUUCUCAACUAUGACACGCAAAACGCGUGCUCCGUGGAAUGGAGUUUAUCAUG | -4.12
GGAUCUUCUCGAUCUACCAAAAAAGACAAAUCUGCCACAAAGCUUGAGAGCAUCUUCGGAUGCAGAGGCGGCAGCCUUCGGUCGCGCGAUAGCGCCAACGUUCUCAACUAUGACACGCAAAACGCGUGCUCCGUUGAAUGGAGUUUAUCAUG | -0.317
GGAUCUUCUCGAUCUACCAAAAAACACAAAUCUGCCACAAAGCUUGAGAGCAUCUUCGGAUUCAGAGGCGGCAGCCUUCGGUGGCGCGAUAGCGCCAACGUUCUCAACUAUGACACGCAAAACGCGUGCUCCGUUGAAUGGAGUUUAUCAUG | -3.17
GGAUCUUCUCGAUCUAGCAAAAAAGACAAAUCUGCCACAAAGCUUGAGAGCAUCUUCGGGUGCAGAGGCGGCAGCCUUCGGUGUCGCGAUAGCGCCAACGUUCUCAACUAUGACACGAAAAACGCGUGCUCCGUUGAAUGGAGUUGAUCAUG | -2.3
GGAUCUUCUCGAUCUAGCAAAAAAGACAAAUCUGCCACAAUGCUUGAGAGCAUUUUCGGAUGCAGAGGCGGCGGCCUUCGGUGGCGCGAUAGCGCCAACGUUCUCAACUAUGACACGCAAAACGCGUGCUCCGUUGAAUGGAGUUUAUCAUG | -1.46
GGAUCUUCUCGAUCUACCAAAAAAGACAAAUCAGCCACAAAGCUUGAGAGCAUCUUCGGAUGCAGAGGCGGCUGCCUUCGGUGGCGCGAUAGCGCUAACGUUCUCAACUAUGACACGCAAAACGCGUACUCCGUUGAAUAGAGUUGAUCAUG | -3.99
GGAUCUUCUCGAUCUAGCAAAAAAGACAAAUCUGCCACAAAGCUUGCGAGCAUCUUCGGAUGCAGAGGCGGCAGCCUUCGGUGGCGCGAUAGCGCCAACGUUCUCAACUAUGACACGCAAAACGCGUGCACCGUUGAAUGGAGUUUAUCAUG | -4.1
GGAUCUUCUCGAUCUACCAAAAAAGACAAAUCUGCCACAAAGCUUGAGAGCAUCUUCGGAUACAGAGGCGGCAGCCUUCGGUGGAGCGAUAGCGCCAACGUUCUCAACUAUGACACGCAAAACGCGUGCUCCGUUGAAUGGAGUUUAUCAUG | -1.77
GGAUCUUCUCGAUCUACCAAAAAAGACAAAUCUGCCACAAAGCUUGAGAGCAUCUUCGGAUGCAGAGGCGGCAGCCUUCGGUGGCGCGAUAGGGCCAACGUUCUCAACUAUGACACGCAAAACGCGUGCUCCGUUGAAUGGAGUUUAUCAUG | -3.8
